Blank lines part the entries; values can stand above or below the binder they belong to.
Columns and labels:
Experiment in all cases: ELISA
cdMMP-14 N231A = cdMMP-14 N231A (Homo sapiens, UniProt P50281, N231A)
cdMMP-14 F198A = cdMMP-14 F198A (Homo sapiens, UniProt P50281, F198A)
[1] = biological target: cdMMP-14 P259 alanine mutant (Homo sapiens, UniProt P50281, P259 to Ala)
cdMMP-14 F260A = cdMMP-14 F260A (Homo sapiens, UniProt P50281, F260A)

fold weakening of IC50 against cdMMP-14 wt (cdMMP-14 N231A): 14 fold
B1: Fab 2B5 (Fab, V domains shown)
VH: EVQLVESGGGLVQPGGSLRLSCAASGFNLSYSSMHWVRQAPGKGLEWVASIYPYSGYTYYADSVKGRFTISADTSKNTAYLQMNSLRAEDTAVYYCARIGVNAWAVKMSQRMLATRGSGWYVMDYWGQGTLVTVSS
VL: DIQMTQSPSSLSASVGDRVTITCRASQSVSSAVAWYQQKPGKAPKLLIYSASSLYSGVPSRFSGSRSGTDFTLTISSLQPEDFATYYCQQSSSYPYSPITFGQGTKVEIK

IC50 (cdMMP-14 F198A): > 900 nM
IC50 [1]: > 900 nM
B2: Fab 3E2 (Fab, V domains shown)
VH: EVQLVESGGGLVQPGGSLRLSCAASGFNIYYYSIHWVRQAPGKGLEWVASIYPYSSYTYYADSVKGRFTISADTSKNTAYLQMNSLRAEDTAVYYCARGIKGLVFTGSQMKMLRRGNYNWYVMDYWGQGTLVTVSS
VL: DIQMTQSPSSLSASVGDRVTITCRASQSVSSAVAWYQQKPGKAPKLLIYSASSLYSGVPSRFSGSRSGTDFTLTISSLQPEDFATYYCQQSSYSLITFGQGTKVEIK

fold increase in IC50 against cdMMP-14 wt (cdMMP-14 F260A): 33 fold
B3: Fab 3E9 (Fab, V domains shown)
VH: EVQLVESGGGLVQPGGSLRLSCAASGFNLYYSSMHWVRQAPGKGLEWVASIYPSYGSTYYADSVKGRFTISADTSKNTAYLQMNSLRAEDTAVYYCARNGRYPGFLKRAHKRLLNFKAYVMDYWGQGTLVTVSS
VL: DIQMTQSPSSLSASVGDRVTITCRASQSVSSAVAWYQQKPGKAPKLLIYSASSLYSGVPSRFSGSRSGTDFTLTISSLQPEDFATYYCQQGSWYLITFGQGTKVEIK
